The record followed here is patent US20250034260A1 (Sanofi, published 2025).

Experiment [1] has as its target T1, cyno FcRn (biotinylated) (cynomolgus, UniProt Q8SPV9 24-297; Q8SPW0 21-119, limits assumed, biotinylated (site not stated)).
T1 construct: also called Cynomolgus FcRn; cynomolgus monkey FcRn
Put plainly: SPR, Biacore 8K+, biotinylated cyno FcRn captured on SA chip, pH 6.0, bivalent analyte fit; pH 6.0. The method, then:
(§1) The Nanobody® VHH-Fc protein constructs (FcRn antagonists) were characterized by affinity determination for human FcRn and cyno FcRn at pH 6.0 and pH 7.4 on the Biacore 8K+ instrument. For affinity measurements, ^{˜}200-400 of biotinylated human or cyno FcRn was captured on a Series S Sensor Chip SA. The Nanobody® VHH-Fc fusion proteins were injected at 9 different concentrations (between 0.5 and 1500 nM) and allowed to associate for 120 s at 30 μL/min and dissociate for 600 s.
(§2) The data could not be fitted with the 1:1 Langmuir dissociation model, and a Bivalent Analyte fitting model was used instead due to biphasic on-rate behaviour observed during analysis. The FcRn affinities obtained for TP061 were in line with the published data (see, e.g., Vaccaro, C., Zhou, J., Ober, R. et al., “Engineering the Fc region of immunoglobulin G to modulate in vivo antibody levels”, Nat. Biotechnol. 23, 1283-1288 (2005)).
On the technique in general: Surface plasmon resonance follows binding to a sensor surface in real time, without labels.

Experiment [2] addresses T2, human FcRn (biotinylated) (human, UniProt P61769 21-119, biotinylated (site not stated)).
T2 construct: also called neonatal Fc receptor; FcRP
Put plainly: SPR, Biacore 8K+, biotinylated human FcRn captured on SA chip, pH 6.0, bivalent analyte fit; pH 6.0. As for the experimental part: as §1, §2

For experiment [3], the target named is T1, cyno FcRn (biotinylated). Put plainly: SPR, Biacore 8K+, biotinylated cyno FcRn captured on SA chip, pH 6.0, bivalent analyte fit. As for the experimental part: as §1, §2
The target in experiment [4] is T1, cyno FcRn (biotinylated). Put plainly: SPR, Biacore 8K+, biotinylated cyno FcRn captured on SA chip, pH 7.4, bivalent analyte fit. The method, then: as §1, §2
In experiment [5] the target is T2, human FcRn (biotinylated). Put plainly: SPR, Biacore 8K+, biotinylated human FcRn captured on SA chip, pH 6.0, bivalent analyte fit. The method, then:
as §1, §2

The target in experiment [6] is T2, human FcRn (biotinylated). The experiment can be described thus: SPR, Biacore 8K+, biotinylated human FcRn captured on SA chip, pH 7.4, bivalent analyte fit. The method, then: as §1, §2

T1 sequence (Q8SPV9 24-297 limits assumed, chain 1 of 2): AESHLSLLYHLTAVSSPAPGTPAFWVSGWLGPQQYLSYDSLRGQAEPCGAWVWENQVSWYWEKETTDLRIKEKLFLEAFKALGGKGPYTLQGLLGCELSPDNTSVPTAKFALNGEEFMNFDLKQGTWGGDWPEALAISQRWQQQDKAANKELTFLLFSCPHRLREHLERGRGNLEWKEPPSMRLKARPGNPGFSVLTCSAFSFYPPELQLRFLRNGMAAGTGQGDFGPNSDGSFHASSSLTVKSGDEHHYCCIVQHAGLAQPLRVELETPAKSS
T1 sequence (Q8SPW0 21-119 limits assumed, chain 2 of 2): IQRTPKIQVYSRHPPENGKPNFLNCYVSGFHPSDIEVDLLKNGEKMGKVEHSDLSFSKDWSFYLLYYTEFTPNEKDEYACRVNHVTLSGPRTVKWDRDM
T2 sequence (chain, as listed by the source limits assumed, chain 1 of 2): as the sequence (Q8SPV9 24-297 limits assumed, chain 1 of 2) above, with D39N, Q44E, S99G, G189S, N190S, M217L, T269S counted along it
T2 sequence (P61769 21-119 limits assumed, chain 2 of 2): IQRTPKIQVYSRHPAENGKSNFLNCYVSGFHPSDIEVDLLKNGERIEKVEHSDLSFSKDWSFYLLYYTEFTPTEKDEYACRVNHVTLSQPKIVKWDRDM

B1: T-0263-00_TP061 (other)
chain: DKTHTCPPCPAPELLGGPSVFLFPPKPKDTLYITREPEVTCVVVDVSHEDPEVKFNWYVDGVEVHNAKTKPREEQYNSTYRVVSVLTVLHQDWLNGKEYKCKVSNKALPAPIEKTISKAKGQPREPQVYTLPPSRDELTKNQVSLTCLVKGFYPSDIAVEWESNGQPENNYKTTPPVLDSDGSFFLYSKLTVDKSRWQQGNVFSCSVMHEALKFHYTQKSLSLSPGK
notes: Symmetrical (homodimeric) Fc-only control made without knob-in-hole; also called control FcRn antagonist; IgG1 Fc YTE-KF Fc domain without Nanobody VHH
With B1, the Kd stood at 27.5 nM in experiment [1] and 17.2 nM in experiment [2].

B2: T-0263-00_TP069 (Fc fusion)
chain 1: DKTHTCPPCPAPELLGGPSVFLFPPKPKDTLYITREPEVTCVVVDVSHEDPEVKFNWYVDGVEVHNAKTKPREEQYNSTYRVVSVLTVLHQDWLNGKEYKCKVSNKALPAPIEKTISKAKGQPREPQVYTLPPCRDELTKNQVSLWCLVKGFYPSDIAVEWESNGQPENNYKTTPPVLDSDGSFFLYSKLTVDKSRWQQGNVFSCSVMHEALKFHYTQKSLSLSPGGGGGSGGGGSGGGGSGGGGSGGGGSGGGGSGGGGSEVQLVESGGGVVQPGGSLRLSCAASGFTFSSYAMYWVRQAPGKGLEWVSAISSGGGSTDYADSVKGRFTISRDNSKNTLYLQMNSLRPEDTALYYCAADTLYTSLTSYSYWGQGTLVTVSS
chain 2: DKTHTCPPCPAPELLGGPSVFLFPPKPKDTLYITREPEVTCVVVDVSHEDPEVKFNWYVDGVEVHNAKTKPREEQYNSTYRVVSVLTVLHQDWLNGKEYKCKVSNKALPAPIEKTISKAKGQPREPQVCTLPPSRDELTKNQVSLSCAVKGFYPSDIAVEWESNGQPENNYKTTPPVLDSDGSFFLVSKLTVDKSRWQQGNVFSCSVMHEALKFHYTQKSLSLSPG
notes: also called C-terminal fusion construct; human IgG1 Fc YTE-KF (knob)-35GS-T0263018B11(W100cS) + Fc YTE-KF (hole)
Consider B2, for which the Kd in experiment [3] was found to be 0.683 nM; in experiment [4] it was 12.5 nM; in experiment [5], 0.873 nM; in experiment [6], 14 nM.

B3: T-0263-00_TP067 (Fc fusion)
chain 1: DVQLVESGGGVVQPGGSLRLSCAASGFTFSSYAMYWVRQAPGKGLEWVSAISSGGGSTDYADSVKGRFTISRDNSKNTLYLQMNSLRPEDTALYYCAADTLYTSLTSYSYWGQGTLVTVSSDKTHTCPPCPAPELLGGPSVFLFPPKPKDTLYITREPEVTCVVVDVSHEDPEVKFNWYVDGVEVHNAKTKPREEQYNSTYRVVSVLTVLHQDWLNGKEYKCKVSNKALPAPIEKTISKAKGQPREPQVYTLPPCRDELTKNQVSLWCLVKGFYPSDIAVEWESNGQPENNYKTTPPVLDSDGSFFLYSKLTVDKSRWQQGNVFSCSVMHEALKFHYTQKSLSLSPG
chain 2: B2 chain 2
notes: also called N-terminal fusion construct; T0263018B11(E1D,W100cS)-human IgG1 Fc YTE-KF (knob) + Fc YTE-KF (hole)
For the molecule B3, the Kd in experiment [3] is 0.541 nM; in experiment [4], 11.2 nM; in experiment [5] it was 0.692 nM; in experiment [6], 10.3 nM.
